From the supplement of paper PMC9112550, “Optimization of the antimicrobial peptide Bac7 by deep mutational scanning” (BMC Biology, 2022)

system: Escherichia coli TOP10; test: shrunken log2 fold change of peptide-encoding DNA abundance (4.5 h post-induction vs induction); higher = less antimicrobial activity (less host growth inhibition); conditions: time post-induction: 4.5 h; library: site-saturation at positions 5, 18, 19, 20
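Note: peptides expressed intracellularly from a pBAD plasmid library in pooled LB shake-flask culture, induced with 0.3% L-arabinose, DNA abundance read by NGS, three biological replicates, DESeq2 with apeglm shrinkage.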

Row | Sequence | shrunken log2 fold change
1 | RRIRTRPPRLPRPRPRPMPVPRP | 0.0572
2 | RRIRNRPPRLPRPRPRPKLTPRP | 2
3 | RRIRVRPPRLPRPRPRPQFLPRP | 0.052
4 | RRIRPRPPRLPRPRPRPHIHPRP | -0.82
5 | RRIRCRPPRLPRPRPRPFSVPRP | -0.236
6 | RRIRNRPPRLPRPRPRPYWHPRP | -0.0277
7 | RRIRARPPRLPRPRPRPQISPRP | -0.051
8 | RRIRTRPPRLPRPRPRPKSDPRP | -0.146
9 | RRIRHRPPRLPRPRPRPSIEPRP | -0.37
10 | RRIRSRPPRLPRPRPRPMNLPRP | 0.048
11 | RRIRPRPPRLPRPRPRPMSFPRP | -0.0289
12 | RRIRRRPPRLPRPRPRPAWVPRP | 1.75
13 | RRIRHRPPRLPRPRPRPDRSPRP | -0.0222
14 | RRIRLRPPRLPRPRPRPCSQPRP | -0.0964
15 | RRIRRRPPRLPRPRPRPHMRPRP | 0.29
16 | RRIRSRPPRLPRPRPRPRITPRP | -0.421
17 | RRIRQRPPRLPRPRPRPRRIPRP | -0.27
18 | RRIRERPPRLPRPRPRPNEEPRP | 0.00699
19 | RRIRPRPPRLPRPRPRPRWMPRP | 0.412
20 | RRIRFRPPRLPRPRPRPCPVPRP | -0.618
21 | RRIRHRPPRLPRPRPRPCPDPRP | 0.0299
22 | RRIRARPPRLPRPRPRPHHFPRP | -0.0814
23 | RRIRTRPPRLPRPRPRPTIHPRP | -0.712
24 | RRIRPRPPRLPRPRPRPWGSPRP | 0.216
25 | RRIRFRPPRLPRPRPRPKAQPRP | -0.0881

Row | Sequence | shrunken log2 fold change
26 | RRIRNRPPRLPRPRPRPLWAPRP | -0.0559
27 | RRIRQRPPRLPRPRPRPPESPRP | 0.528
28 | RRIRKRPPRLPRPRPRPETGPRP | 0.226
29 | RRIRSRPPRLPRPRPRPVKPPRP | 0.132
30 | RRIRQRPPRLPRPRPRPVITPRP | -0.414
31 | RRIRWRPPRLPRPRPRPYFPPRP | -0.282
32 | RRIRCRPPRLPRPRPRPKPIPRP | 0.0598
33 | RRIRLRPPRLPRPRPRPPTMPRP | 0.266
34 | RRIRVRPPRLPRPRPRPNEIPRP | -0.52
35 | RRIRPRPPRLPRPRPRPHLKPRP | -0.000265
36 | RRIRSRPPRLPRPRPRPPTCPRP | 0.155
37 | RRIRKRPPRLPRPRPRPWRNPRP | -0.0406
38 | RRIRPRPPRLPRPRPRPWSMPRP | -0.155
39 | RRIRDRPPRLPRPRPRPDPSPRP | -0.0385
40 | RRIRWRPPRLPRPRPRPCAEPRP | 0.618
41 | RRIRCRPPRLPRPRPRPGECPRP | 0.198
42 | RRIRMRPPRLPRPRPRPMEIPRP | -0.129
43 | RRIRPRPPRLPRPRPRPMWGPRP | 0.0327
44 | RRIRGRPPRLPRPRPRPPHVPRP | 1.04
45 | RRIRLRPPRLPRPRPRPSWKPRP | 0.132
46 | RRIRLRPPRLPRPRPRPQCGPRP | 0.0192
47 | RRIRVRPPRLPRPRPRPISPPRP | 0.129
48 | RRIRHRPPRLPRPRPRPPRKPRP | -0.0559
49 | RRIRIRPPRLPRPRPRPQKMPRP | -0.269
50 | RRIRNRPPRLPRPRPRPPGPPRP | 0.419

Row | Sequence | shrunken log2 fold change
51 | RRIRNRPPRLPRPRPRPQWQPRP | -0.0605
52 | RRIRGRPPRLPRPRPRPSFEPRP | 0.647
53 | RRIRQRPPRLPRPRPRPAMYPRP | -0.244
54 | RRIRKRPPRLPRPRPRPQVYPRP | -0.0614
55 | RRIRIRPPRLPRPRPRPAYHPRP | -0.639
56 | RRIRIRPPRLPRPRPRPLFHPRP | -0.779
57 | RRIRSRPPRLPRPRPRPVPTPRP | 0.105
58 | RRIRLRPPRLPRPRPRPMSDPRP | 0.0343
59 | RRIRNRPPRLPRPRPRPAPKPRP | 0.377
60 | RRIRDRPPRLPRPRPRPDMRPRP | 0.0382
61 | RRIRYRPPRLPRPRPRPITYPRP | -0.0505
62 | RRIRMRPPRLPRPRPRPTWAPRP | 0.192
63 | RRIRGRPPRLPRPRPRPMKLPRP | 0.265
64 | RRIRFRPPRLPRPRPRPAMLPRP | 0.0665
65 | RRIRRRPPRLPRPRPRPINQPRP | 0.0137
66 | RRIRSRPPRLPRPRPRPDCWPRP | 0.362
67 | RRIRNRPPRLPRPRPRPMCGPRP | -0.301
68 | RRIRARPPRLPRPRPRPGWYPRP | 0.437
69 | RRIRCRPPRLPRPRPRPTDVPRP | -0.461
70 | RRIRERPPRLPRPRPRPWFTPRP | -0.187
71 | RRIRCRPPRLPRPRPRPPICPRP | -0.248
72 | RRIRDRPPRLPRPRPRPYLTPRP | -0.0558
73 | RRIRIRPPRLPRPRPRPWVRPRP | 0.0146
74 | RRIRIRPPRLPRPRPRPLLFPRP | -0.553
75 | RRIRMRPPRLPRPRPRPHMYPRP | -0.568

Row | Sequence | shrunken log2 fold change
76 | RRIRGRPPRLPRPRPRPVSHPRP | 0.389
77 | RRIRLRPPRLPRPRPRPWVWPRP | -0.199
78 | RRIRIRPPRLPRPRPRPGIMPRP | -0.137
79 | RRIRNRPPRLPRPRPRPIYGPRP | -0.224
80 | RRIRIRPPRLPRPRPRPVNLPRP | -0.116
81 | RRIRFRPPRLPRPRPRPRIEPRP | -0.0896
82 | RRIRSRPPRLPRPRPRPHLTPRP | -0.0599
83 | RRIRSRPPRLPRPRPRPPCKPRP | -0.163
84 | RRIRWRPPRLPRPRPRPRMSPRP | 0.139
85 | RRIRKRPPRLPRPRPRPRGWPRP | 0.792
86 | RRIRHRPPRLPRPRPRPGPQPRP | 0.0368
87 | RRIRIRPPRLPRPRPRPIFNPRP | -0.589
88 | RRIRERPPRLPRPRPRPWTEPRP | 0.027
89 | RRIRLRPPRLPRPRPRPNMRPRP | 0.0295
90 | RRIRTRPPRLPRPRPRPKDFPRP | -0.00116
91 | RRIRIRPPRLPRPRPRPSELPRP | -0.186
92 | RRIRYRPPRLPRPRPRPKGYPRP | -0.0889
93 | RRIRSRPPRLPRPRPRPQMSPRP | -0.0374
94 | RRIRSRPPRLPRPRPRPHMCPRP | -0.425
95 | RRIRGRPPRLPRPRPRPEELPRP | 1.39
96 | RRIRFRPPRLPRPRPRPAKLPRP | -0.263
97 | RRIRHRPPRLPRPRPRPSNVPRP | -0.00144
98 | RRIRIRPPRLPRPRPRPRIVPRP | -1.21
99 | RRIRYRPPRLPRPRPRPSDWPRP | -0.152
100 | RRIRTRPPRLPRPRPRPTFNPRP | -0.199

Row | Sequence | shrunken log2 fold change
101 | RRIRRRPPRLPRPRPRPTSYPRP | -0.0452
102 | RRIRCRPPRLPRPRPRPSQHPRP | -0.114
103 | RRIRKRPPRLPRPRPRPGQIPRP | 0.00502
104 | RRIRVRPPRLPRPRPRPGWTPRP | 0.202
105 | RRIRVRPPRLPRPRPRPIAHPRP | -0.126
106 | RRIRHRPPRLPRPRPRPMKKPRP | -0.0202
107 | RRIRRRPPRLPRPRPRPCMEPRP | -0.174
108 | RRIRFRPPRLPRPRPRPRGFPRP | 0.27
109 | RRIRVRPPRLPRPRPRPMSSPRP | 0.0619
110 | RRIRCRPPRLPRPRPRPYDIPRP | 0.0852
111 | RRIRDRPPRLPRPRPRPMSTPRP | 0.0569
112 | RRIRIRPPRLPRPRPRPLCKPRP | -0.336
113 | RRIRLRPPRLPRPRPRPLRSPRP | 0.474
114 | RRIRARPPRLPRPRPRPPDRPRP | 0.853
115 | RRIRWRPPRLPRPRPRPWIMPRP | -0.0381
116 | RRIRLRPPRLPRPRPRPTTFPRP | 0.0632
117 | RRIRARPPRLPRPRPRPCLEPRP | 0.19
118 | RRIRVRPPRLPRPRPRPGDSPRP | -0.0395
119 | RRIRLRPPRLPRPRPRPCFLPRP | -0.337
120 | RRIRARPPRLPRPRPRPCISPRP | 0.0706
121 | RRIRHRPPRLPRPRPRPYYLPRP | -0.72
122 | RRIRERPPRLPRPRPRPCDEPRP | 0.011
123 | RRIRCRPPRLPRPRPRPIEAPRP | -0.108
124 | RRIRSRPPRLPRPRPRPWQKPRP | 0.14
125 | RRIRTRPPRLPRPRPRPMGMPRP | -0.12

Row | Sequence | shrunken log2 fold change
126 | RRIRQRPPRLPRPRPRPMNSPRP | -0.468
127 | RRIRHRPPRLPRPRPRPFMAPRP | -0.548
128 | RRIRQRPPRLPRPRPRPYHLPRP | -0.00174
129 | RRIRLRPPRLPRPRPRPLLCPRP | -0.0707
130 | RRIRVRPPRLPRPRPRPAQDPRP | 0.0947
131 | RRIRGRPPRLPRPRPRPWPDPRP | 0.194
132 | RRIRKRPPRLPRPRPRPWNMPRP | -0.181
133 | RRIRHRPPRLPRPRPRPSLEPRP | 0.0392
134 | RRIRGRPPRLPRPRPRPAHDPRP | 0.643
135 | RRIRLRPPRLPRPRPRPVFIPRP | -0.454
136 | RRIRSRPPRLPRPRPRPKWGPRP | 0.228
137 | RRIRLRPPRLPRPRPRPSRYPRP | -0.0576
138 | RRIRQRPPRLPRPRPRPHCFPRP | -0.111
139 | RRIRGRPPRLPRPRPRPPLRPRP | 0.796
140 | RRIRTRPPRLPRPRPRPDVVPRP | -0.106
141 | RRIRRRPPRLPRPRPRPWIFPRP | 0.0818
142 | RRIRKRPPRLPRPRPRPQRCPRP | 0.269
143 | RRIRARPPRLPRPRPRPEIHPRP | 0.756
144 | RRIRYRPPRLPRPRPRPPLSPRP | -0.283
145 | RRIRHRPPRLPRPRPRPTHSPRP | -0.192
146 | RRIRDRPPRLPRPRPRPWTRPRP | -0.231
147 | RRIRHRPPRLPRPRPRPYLMPRP | -0.554
148 | RRIRFRPPRLPRPRPRPASRPRP | 0.128
149 | RRIRFRPPRLPRPRPRPVLPPRP | -0.371
150 | RRIRQRPPRLPRPRPRPLWFPRP | -0.0512
